Source: patent EP1192182B1, “PITUITARY ADENYLATE CYCLASE ACTIVATING PEPTIDE (PACAP) RECEPTOR 3 (R3) AGONISTS AND THEIR PHARMACOLOGICAL METHODS OF USE” (priority 1999, dated 2001)
Non-standard residues stand in square brackets, D forms with d. Residues, ends and D or L forms follow the SMILES beside them. No end group written: not given here. Nle = CCCC[C@H](N)C(=O)O

T1: PACAP-R3 (human, UniProt P41587 24-438)
T1 sequence (looked up): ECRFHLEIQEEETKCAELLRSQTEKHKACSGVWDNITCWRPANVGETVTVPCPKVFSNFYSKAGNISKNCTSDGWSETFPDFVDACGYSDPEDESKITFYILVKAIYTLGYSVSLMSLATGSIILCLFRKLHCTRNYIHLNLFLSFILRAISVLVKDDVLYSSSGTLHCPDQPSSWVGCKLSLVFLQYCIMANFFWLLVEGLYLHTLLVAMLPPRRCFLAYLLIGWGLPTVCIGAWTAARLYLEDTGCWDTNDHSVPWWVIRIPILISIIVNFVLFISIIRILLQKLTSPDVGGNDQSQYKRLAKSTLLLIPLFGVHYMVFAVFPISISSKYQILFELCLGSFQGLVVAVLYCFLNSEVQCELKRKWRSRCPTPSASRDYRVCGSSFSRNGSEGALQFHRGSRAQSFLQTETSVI

T2: human PACAP/VIP R2 (PACAP R3) receptor (human, UniProt P41587 24-438)
T2 sequence (looked up): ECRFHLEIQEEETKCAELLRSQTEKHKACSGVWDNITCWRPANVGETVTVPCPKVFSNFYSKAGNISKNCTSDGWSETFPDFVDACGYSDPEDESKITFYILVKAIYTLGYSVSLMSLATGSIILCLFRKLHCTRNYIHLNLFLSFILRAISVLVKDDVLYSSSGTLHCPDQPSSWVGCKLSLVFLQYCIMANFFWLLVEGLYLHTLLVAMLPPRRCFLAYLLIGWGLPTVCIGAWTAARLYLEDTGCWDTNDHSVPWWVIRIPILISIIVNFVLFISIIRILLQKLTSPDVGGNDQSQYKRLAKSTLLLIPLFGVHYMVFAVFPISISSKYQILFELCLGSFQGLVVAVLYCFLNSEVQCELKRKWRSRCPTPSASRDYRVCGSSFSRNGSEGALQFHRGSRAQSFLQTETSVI


Target: T1, PACAP-R3
Test: cell-based or functional assay
Details: not given

HSDAVFTDNYTRLRKQLAAKKYLNDIKKQ [R3P34] and HSDAVFTDNYTRLRKQMAAKKYLNSIKNKG [R3P157] cannot be ordered by “R3 Selectivity” value: greater than 70 ratio for the first, 170 ratio for the second.

First: HSDAVFTDNYTRLRKQMAVKKYLNSIKN [R3P42]
Second: HSDAVFTDNYTRLRKQMAAKKYLNDIKKGGT [R3P20]
The “R3 Selectivity” value of the first is lower: 10 ratio for the first, 230 ratio for the second.

Going from HSDAVFTDNYTRLRKQLAVKKYLNDIKKGGT [R3P21] to HSDAVFTDNYTRLRKQLAVKKYLNSIKKGGT [R3P25], the “R3 Selectivity” value falls from 60 ratio to 20 ratio.

Going from HSDAVFTDNYTRLRKQMAAKKYLNSIKKGGT [R3P26] to HSDAVFTDNYTRLRKQLAAKKYLNSIKKGGT [R3P22], the “R3 Selectivity” value falls from greater than 180 ratio to 24 ratio.

Compared with HSDAVFTDNYTRLRKQLAAKKYLNDIKNGGT [R3P24], HSDAVFTDNYTRLRKQLAAKKYLNSIKNGGT [R3P30] is higher in “R3 Selectivity” value: 34 ratio for the first, 50 ratio for the second.

HSDAVFTDNYTRLRKQLAVKKYLNDIKNGGT [R3P29] and HSDAVFTDNYTRLRKQLAAKKYLNDIKK [R3P33] cannot be ordered by “R3 Selectivity” value: greater than 200 ratio for the first, greater than 200 ratio for the second.

Going from HSDAVFTDNYTRLRKQMAAKKYLNSIKNKF [R3P156] to Ac-HSDAVFTENYTKLRKQ[Nle]AAKKYLNDLKKGGT-NH2 [R3P0], the “R3 Selectivity” value rises from 100 ratio to greater than 250 ratio.

HSDAVFTDNYTRLRKQLAAKKYLNDIKKGG [R3P31] and HSDAVFTDNYTRLRKQMAAKKYLNSIKNKK [R3P160] cannot be ordered by “R3 Selectivity” value: greater than 300 ratio for the first, 500 ratio for the second.

First: HSDAVFTDNYTRLRKQMAVKKYLNSILK [R3P43]
Second: HSDAVFTDNYTRLRKQLAAKKYLNDIKKG [R3P32]
The “R3 Selectivity” value of the first is lower: 10 ratio for the first, 200 ratio for the second.

HSDAVFTDNYTRLRKQMAAKKYLNSIKNKI [R3P159] and HSDAVFTDNYTRLRKQLAAKKYLNDIKKNQ [R3P35] cannot be ordered by “R3 Selectivity” value: 400 ratio for the first, greater than 40 ratio for the second.

Compared with HSDAVFTDNYTRLRKQMAVKKYLNSIKK [R3P41], HSDAVFTDNYTRLRKQMAAKKYLNSIKNKN [R3P163] is higher in “R3 Selectivity” value: 100 ratio for the first, 200 ratio for the second.

First: HSDAVFTDNYTRLRKQLAAKKYLNDIKKKRY [R3P36]
Second: HSDAVFTDNYTELRKQMAVKKYLNSILN [R3P44]
The “R3 Selectivity” value of the first is higher: greater than 200 ratio for the first, 6 ratio for the second.

Ac-HSDAVFTENYTKLRKQLAAKKYLNDLKKGGT-NH2 [R3P1] and HSDAVFTDNYTRLRKQMAAKKYLNSIKNKH [R3P158] cannot be ordered by “R3 Selectivity” value: greater than 50 ratio for the first, 90 ratio for the second.

Going from HSDAVFTDNYTRLRKQMAAKKYLNSIKNKG [R3P157] to HSDAVFTDNYTRLRKQMAAKKYLNSIKNKF [R3P156], the “R3 EC50” value rises from 0.3 nM to 1 nM (3.3-fold).

HSDAVFTDNYTRLRKQMAAKKYLNSIKNKL [R3P161] and HSDAVFTDNYTRLRKQMAAKKYLNSIKNKP [R3P164] are within 1.5-fold of each other in “R3 EC50” value: 0.2 nM for the first, 0.3 nM for the second.

First: HSDAVFTDNYTRLRKQMAAKKYLNSIKNKI [R3P159]
Second: HSDAVFTDNYTRLRKQMAAKKYLNSIKNKN [R3P163]
The “R3 EC50” value of the first is 2.5-fold higher: 0.5 nM for the first, 0.2 nM for the second.

For HSDAVFTDNYTRLRKQMAAKKYLNSIKNKH [R3P158], the “R3 EC50” value was 0.07 nM.

Target: T2, human PACAP/VIP R2 (PACAP R3) receptor
Test: cell-based or functional assay
Details: not given

Going from HSDAVFTDNYTRLRKQMAAKKYLNSIKNKW [rR3P169] to HSDAVFTDNYTRLRKQVAAKKYLQSIKNKRYSWCEPGWCR [rR3P171], the “R3 EC50, nM (cAMP SPA)” value rises from 0.2 nM to 0.4 nM (2-fold).

First: ESDGIFTDSYSRYRKQMAVKKYLAAVL [R3P173]
Second: HSDAVFTDDYTRLRKEVAAKKYLESIKDKRY [R3P172]
The “R3 EC50, nM (cAMP SPA)” value of the first is 77-fold higher: 200 nM for the first, 2.6 nM for the second.

Compared with HSDAVFTDNYTRLRKQMAAKKYLNSIKNKT [rR3P167], HSDAVFTDNYTRLRKQMAAKKYLNSIKNKQ [rR3P165] is 2-fold lower in “R3 EC50, nM (cAMP SPA)” value: 1 nM for the first, 0.5 nM for the second.

In the case of HSDAVFTDNYTRLRKQMAAKKYLNSIKNRI-NH2 [PAC27], the “R3 EC50, nM (cAMP SPA)” value is reported as 1.1 nM.

Going from HSDAVFTDNYTRLRKQVAAKKYLQSIKNKRYSWCEPGWCR [rR3P171] to HSDAVFTDDYTRLRKEVAAKKYLESIKDKRY [R3P172], the “R3 Selectivity” value falls from 200 ratio to 29 ratio.

With HSDAVFTDNYTRLRKQMAAKKYLNSIKNRI-NH2 [PAC27] the “R3 Selectivity” value was 1.4 ratio.

Test system: not listed separately
Test: Peptide-induced elevation of plasma insulin after IVGTT
Format: in vivo
Details: one minute after IVGTT (0.4g/kg glucose), 1 nmole/kg peptide i.v., Wistar rats
Description: Wistar rats are fasted overnight (17 hrs) and then anesthetized with pentobarbital (0.1 ml/100 g BW). Glucose (0.4 g/kg dissolved in 1% human albumin-saline) +/- peptide (dissolved in 1% human albumin-saline) is injected intravenously into the tail vein. The rats are eye-bled 1 minute after the injection and 50-100ul of the plasma are assayed for insulin level with the Linco RIA kit (Linco Research, Inc., St. Charles, MO).
In accordance with the protocol of example 2 above, overnight fasted Wistar rats were anesthetized with pentobarital; i.v. injected with glucose ± peptide and eye bled after 1 minute. N=12 rats/group. […] The peptide or vehicle was given i.v. followed by a glucose load given i.p. in accordance with example 3. The plasma glucose was followed over the time period indicated.
Plasma insulin: Data are expressed as % of plasma insulin one minute after IVGTT (0.4g/kg glucose) with either saline, 0.1nmol/kg P51, P55, P60, P66 or 1 nmole/kg of the other peptides including peptides which are not part of the present invention in Wistar rats. Blood was drawn from the eye and insulin was measured with the rat insulin RIA kit (Linco Research, Inc, St. Charles, MO).

With `CC(C)C[C@H](NC(=O)[C@H](CCC(N)=O)NC(=O)[C@H](CCCCN)NC(=O)[C@H](CCCNC(=N)N)NC(=O)[C@H](CC(C)C)NC(=O)[C@H](CCCCN)NC(=O)[C@@H](NC(=O)[C@H](Cc1ccc(O)cc1)NC(=O)[C@H](CC(N)=O)NC(=O)[C@H](CCC(=O)O)NC(=O)[C@@H](NC(=O)[C@H](Cc1ccccc1)NC(=O)[C@@H](NC(=O)[C@H](C)NC(=O)[C@H](CC(=O)O)NC(=O)[C@H](CO)NC(=O)[C@@H](N)Cc1c[nH]cn1)C(C)C)[C@@H](C)O)[C@@H](C)O)C(=O)N[C@@H](C)C(=O)N[C@@H](C)C(=O)N[C@@H](CCCCN)C(=O)N[C@@H](CCCCN)C(=O)N[C@@H](Cc1ccc(O)cc1)C(=O)N[C@@H](CC(C)C)C(=O)N[C@@H](CC(N)=O)C(=O)N[C@@H](CC(=O)O)C(=O)N[C@@H](CC(C)C)C(=O)N[C@@H](CCCCN)C(=O)N[C@@H](CCCCN)C(=O)NCC(=O)NCC(=O)N[C@H](C(=O)N[C@@H](CO)C(=O)N[C@@H](Cc1c[nH]c2ccccc12)C(=O)N[C@@H](CS)C(=O)N[C@@H](CCC(=O)O)C(=O)N1CCC[C@H]1C(=O)NCC(=O)N[C@@H](Cc1c[nH]c2ccccc12)C(=O)N[C@@H](CS)C(=O)N[C@@H](CCCNC(=N)N)C(=O)O)[C@@H](C)O` [Peptide R3P19] (H-HSDAVFTENYTKLRKQLAAKKYLNDLKKGGTSWCEPGWCR-OH; C-terminus assumed) the “Plasma Insulin (% of Basal)” value was 285 % of Basal.
